What all share (test): G assays, titrations or binding assays of peptides
Assay [1] concerns the target T1, PAR3 d3 (Homo sapiens, UniProt Q8TEW0, R682S).
T1 construct: made in house; host or cells: E. coli (DH5α, BL21 or JM109)
Conditions: peptide demonstrated to bind PAR3 d3 in G assays.

For assay [2], the target named is T2, INADL d3 (Homo sapiens, UniProt Q8NI35).
T2 construct: made in house; host or cells: E. coli (DH5α, BL21 or JM109)
T2 sequence (Q8NI35 with tags, fused parts or gaps): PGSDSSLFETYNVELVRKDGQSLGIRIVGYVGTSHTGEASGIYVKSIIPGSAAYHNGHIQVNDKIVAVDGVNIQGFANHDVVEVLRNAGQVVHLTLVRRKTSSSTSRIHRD
Conditions: peptide demonstrated to bind INADL d3 in G assays.

Assay [3] concerns the target T3, ZO-1 d2 (Homo sapiens, UniProt Q07157, DEL264-264).
T3 construct: made in house; host or cells: E. coli (DH5α, BL21 or JM109)
T3 sequence (Q07157 with tags, fused parts or gaps DEL264-264): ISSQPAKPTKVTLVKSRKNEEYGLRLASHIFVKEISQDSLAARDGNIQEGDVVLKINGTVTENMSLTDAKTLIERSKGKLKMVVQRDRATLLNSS
Conditions: peptide demonstrated to bind ZO-1 d2 in G assays.

Assay [4] concerns the target T4, RIM2 d1 (Homo sapiens, UniProt Q9UQ26).
T4 construct: made in house; host or cells: E. coli (DH5α, BL21 or JM109)
T4 sequence (Q9UQ26 632-757): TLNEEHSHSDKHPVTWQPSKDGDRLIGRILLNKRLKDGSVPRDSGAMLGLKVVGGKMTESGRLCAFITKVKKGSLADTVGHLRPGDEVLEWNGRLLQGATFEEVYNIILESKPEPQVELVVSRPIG
Conditions: peptide demonstrated to bind RIM2 d1 in G assays.

No end group written: not given here. *: point of attachment. Biotin = O=C1N[C@H]2[C@H](CS[C@H]2CCCCC(=O)*)N1

T1 sequence (Q8TEW0 with tags, fused parts or gaps R682S): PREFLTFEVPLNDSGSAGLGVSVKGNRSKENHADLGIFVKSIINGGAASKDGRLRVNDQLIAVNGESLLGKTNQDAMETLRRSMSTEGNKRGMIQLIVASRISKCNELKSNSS

Regarding “DGGARTEDEVQSYPSKHDYV (Biotin-DGGARTEDEVQSYPSKHDYV)”, in assay [1], the POZ domain bound result was “PAR3 D3”. With “ELLQFCRTPNPALKNGQYWV (Biotin-ELLQFCRTPNPALKNGQYWV)”, the POZ domain bound entry in assay [2] is reported as “INADL D3”; in assay [1], “PAR3 D3”; in assay [3], “ZO-1 D2”.

As for ENLELPVNPSSWSERISSV, the POZ domain bound result in assay [2] is “INADL D3”. As to “FHSKTAGANTTDKELEVLSL (Biotin-FHSKTAGANTTDKELEVLSL)”, the POZ domain bound entry is given as “INADL D3” in assay [2], “PAR3 D3” in assay [1], “RIM2 D1” in assay [4] and “ZO-1 D2” in assay [3]. In the case of “HAMNAAPRAMENAPALRTSH (Biotin-HAMNAAPRAMENAPALRTSH)”, the POZ domain bound result in assay [2] is given as “INADL D3”. Take “KAGYRAPRSYPKSNSSKEYV (Biotin-KAGYRAPRSYPKSNSSKEYV)”: the POZ domain bound entry in assay [1] is given as “PAR3 D3”. Regarding “KHSRKSSSYSSSSTTVKTSY (Biotin-KHSRKSSSYSSSSTTVKTSY)”, the POZ domain bound entry in assay [2] is “INADL D3”; in assay [1] it was “PAR3 D3”; in assay [4], “RIM2 D1”; in assay [3], “ZO-1 D2”. Turning to “KTMPAAMFRLLTGQETPLYI (Biotin-KTMPAAMFRLLTGQETPLYI)”, the POZ domain bound result in assay [1] is reported as “PAR3 D3”. Take “KTMPAAMYRLLTAQEQPVYI (Biotin-KTMPAAMYRLLTAQEQPVYI)”: the POZ domain bound result in assay [1] is on record as “PAR3 D3”.

On to “KTMPAATYRLLTGQEQPVYL (Biotin-KTMPAATYRLLTGQEQPVYL)”, for which the POZ domain bound entry in assay [1] is given as “PAR3 D3”. Same read-out and setting: the same measure for “KYSAPRRPTATGDYDKKNYV (Biotin-KYSAPRRPTATGDYDKKNYV)”: “PAR3 D3”.

On to “LASKSAEEGKQIPDSLSTDL (Biotin-LASKSAEEGKQIPDSLSTDL)”, for which the POZ domain bound result in assay [2] is “INADL D3”; in assay [1], “PAR3 D3”. For the sequence “LERTSSVSPSTAEPELSIVF (Biotin-LERTSSVSPSTAEPELSIVF)”, the POZ domain bound entry in assay [1] is listed as “PAR3 D3”.

For “LNSCSNRRVYKKMPSIESDV (Biotin-LNSCSNRRVYKKMPSIESDV)”, the figures for the POZ domain bound entry in assay [2] and in assay [3] were “INADL D3” and “ZO-1 D2”, respectively. As to “LQFHRGSRAQSFLQTETSVI (Biotin-LQFHRGSRAQSFLQTETSVI)”, the figures for the POZ domain bound result in assay [2] and in assay [1] were “INADL D3” and “PAR3 D3”, respectively. Consider NYKLNTDHAGSNDNIALLVQ, for which the POZ domain bound entry in assay [4] was “RIM2 D1”; in assay [3] it was “ZO-1 D2”. As to “PGQPPKVKSEFNSYSLTGYV (Biotin-PGQPPKVKSEFNSYSLTGYV)”, the POZ domain bound result was “INADL D3” in assay [2] and “PAR3 D3” in assay [1]. As for “PSSRASSRASSRPRPDDLEI (Biotin-PSSRASSRASSRPRPDDLEI)”, the POZ domain bound entry in assay [3] is recorded as “ZO-1 D2”. “QGDPALQDAGDSSRKEYFI (Biotin-QGDPALQDAGDSSRKEYFI)”: the POZ domain bound result in assay [1] is given as “PAR3 D3”. With “RRRRRRRGNTTDKELEVLSL (Biotin-RRRRRRRGNTTDKELEVLSL)”, the POZ domain bound entry in assay [3] is “ZO-1 D2”. On the same count and under the same terms, to “RRRRRRRGTNPAVAATSANL (Biotin-RRRRRRRGTNPAVAATSANL)” belongs “ZO-1 D2”. “RSGATIPLVGQDIIDLQTEV (Biotin-RSGATIPLVGQDIIDLQTEV)”: in assay [2], the POZ domain bound entry was “INADL D3”. On the same count and under the same terms, to “SLIGPVQKEYQRELGKLSSP (Biotin-SLIGPVQKEYQRELGKLSSP)” belongs “INADL D3”.

With “SSPDSSYQGKGFVMSRAMYV (Biotin-SSPDSSYQGKGFVMSRAMYV)”, in assay [1], the POZ domain bound entry is reported as “PAR3 D3”.

For the sequence “SSSRRDSSWSETSEASYSGL (Biotin-SSSRRDSSWSETSEASYSGL)”, the POZ domain bound entry is listed as “RIM2 D1” in assay [4] and “ZO-1 D2” in assay [3].

For “STDNLVRPFMDTLASHQLYI (Biotin-STDNLVRPFMDTLASHQLYI)”, the POZ domain bound entry in assay [2] was “INADL D3”; in assay [1], “PAR3 D3”. For the sequence “TEGNESSEATSPVNAIYSLA (Biotin-TEGNESSEATSPVNAIYSLA)”, the POZ domain bound entry in assay [3] is reported as “ZO-1 D2”. In the case of “TTNNNPNSAVNIKKIFTDV (Biotin-TTNNNPNSAVNIKKIFTDV)”, the figures for the POZ domain bound result in assay [2] and in assay [3] were “INADL D3” and “ZO-1 D2”, respectively. In the case of “VDPNSPAAKKKYVSYNNLVI (Biotin-VDPNSPAAKKKYVSYNNLVI)”, the POZ domain bound result in assay [2] is recorded as “INADL D3”; in assay [1], “PAR3 D3”; in assay [4], “RIM2 D1”; in assay [3] it was “ZO-1 D2”.

Take “VPSDNIDSQGRNASTNDSLL (Biotin-VPSDNIDSQGRNASTNDSLL)”: the POZ domain bound result in assay [2] was “INADL D3”. With “YGRKKRRQRRRARGDRKKIV (Biotin-YGRKKRRQRRRARGDRKKIV)”, the POZ domain bound result in assay [4] was “RIM2 D1”. Turning to YGRKKRRQRRRARGDRKRIV, the figures for the POZ domain bound result in assay [4] and in assay [3] were “RIM2 D1” and “ZO-1 D2”, respectively. The like results for “YGRKKRRQRRRARGDRKRWA (Biotin-YGRKKRRQRRRARGDRKRWA)” were, in that order, “RIM2 D1” and “ZO-1 D2”. Regarding “YGRKKRRQRRRARGDRKRWL (Biotin-YGRKKRRQRRRARGDRKRWL)”, the POZ domain bound entry in assay [4] is given as “RIM2 D1”; in assay [3] it was “ZO-1 D2”. “YGRKKRRQRRRARGDRLEIV (Biotin-YGRKKRRQRRRARGDRLEIV)”: the POZ domain bound entry in assay [4] is given as “RIM2 D1”.

Regarding “YGRKKRRQRRRARGDRRRIV (Biotin-YGRKKRRQRRRARGDRRRIV)”, the POZ domain bound entry in assay [4] is on record as “RIM2 D1”. The same measure, in the same setting: the same measure for “YGRKKRRQRRRARGDVRLML (Biotin-YGRKKRRQRRRARGDVRLML)”: “RIM2 D1”. For the sequence “YGRKKRRQRRRARSDRGIWA (Biotin-YGRKKRRQRRRARSDRGIWA)”, the POZ domain bound entry in assay [4] is given as “RIM2 D1”; in assay [3], “ZO-1 D2”. As to “YGRKKRRQRRRARSDRKRIA (Biotin-YGRKKRRQRRRARSDRKRIA)”, the POZ domain bound entry in assay [4] is on record as “RIM2 D1”. Still for that read-out and setting: to “YGRKKRRQRRRARSDRKRIV (Biotin-YGRKKRRQRRRARSDRKRIV)” belongs “RIM2 D1”. For the sequence “YGRKKRRQRRRAVAAASANL (Biotin-YGRKKRRQRRRAVAAASANL)”, the POZ domain bound entry was “RIM2 D1” in assay [4] and “ZO-1 D2” in assay [3]. Regarding “YGRKKRRQRRRAVAATGIWA (Biotin-YGRKKRRQRRRAVAATGIWA)”, the POZ domain bound entry in assay [4] is “RIM2 D1”. Consider YGRKKRRQRRRAVAATSANL, for which the POZ domain bound result is reported as “INADL D3” in assay [2], “PAR3 D3” in assay [1], “RIM2 D1” in assay [4] and “ZO-1 D2” in assay [3].

Regarding “YGRKKRRQRRRAVAATYSNL (Biotin-YGRKKRRQRRRAVAATYSNL)”, the POZ domain bound entry is recorded as “RIM2 D1” in assay [4] and “ZO-1 D2” in assay [3].

Regarding YGRKKRRQRRRDKELEVLSL, the POZ domain bound result in assay [3] is given as “ZO-1 D2”. In the case of YGRKKRRQRRREYLGLDVPV, the POZ domain bound entry is “INADL D3” in assay [2], “PAR3 D3” in assay [1], “RIM2 D1” in assay [4] and “ZO-1 D2” in assay [3]. Consider YGRKKRRQRRRGASADSTQA, for which the POZ domain bound entry in assay [1] was “PAR3 D3”; in assay [4] it was “RIM2 D1”; in assay [3] it was “ZO-1 D2”. Take “YGRKKRRQRRRGMTSSSSVV (Biotin-YGRKKRRQRRRGMTSSSSVV)”: in assay [4], the POZ domain bound entry is listed as “RIM2 D1”. The same measure, in the same setting: the same measure for “YGRKKRRQRRRLQRRRETQV (Biotin-YGRKKRRQRRRLQRRRETQV)”: “RIM2 D1”. As to “YGRKKRRQRRRQDEEEGIWA (Biotin-YGRKKRRQRRRQDEEEGIWA)”, the POZ domain bound result in assay [4] is on record as “RIM2 D1”; in assay [3] it was “ZO-1 D2”.

“YGRKKRRQRRRQDEEEGIWS (Biotin-YGRKKRRQRRRQDEEEGIWS)”: in assay [4], the POZ domain bound result is recorded as “RIM2 D1”.

As to “YGRKKRRQRRRQDEEETIWA (Biotin-YGRKKRRQRRRQDEEETIWA)”, the POZ domain bound entry in assay [4] was “RIM2 D1”.

Turning to “YGRKKRRQRRRQDERVETRV (Biotin-YGRKKRRQRRRQDERVETRV)”, in assay [4], the POZ domain bound entry is “RIM2 D1”.

For the sequence YGRKKRRQRRRSEGVPDLLV, the POZ domain bound result is “PAR3 D3” in assay [1] and “ZO-1 D2” in assay [3]. Turning to “YGRKKRRQRRRSRTVREIWA (Biotin-YGRKKRRQRRRSRTVREIWA)”, the POZ domain bound entry in assay [4] is on record as “RIM2 D1”. Take “YGRKKRRQRRRSVTSTSINL (Biotin-YGRKKRRQRRRSVTSTSINL)”: the POZ domain bound entry in assay [4] was “RIM2 D1”. With “YSATYSELEDPGEMSPPIDL (Biotin-YSATYSELEDPGEMSPPIDL)”, the POZ domain bound result in assay [2] is “INADL D3”. Take YVYSRVKNLNSSEGVPDLLV: the POZ domain bound result in assay [3] was “ZO-1 D2”.

The values above are taken from patent publication US7858322B2, “Method of determining inhibition of binding to TRPM7 protein” (NoNo, Inc., priority 2003, dated 2010).
